# Assay results published in PMC13534887.
# Target: PaMprF H566C mutant (Pseudomonas aeruginosa)
# Assay: cross-linking + native gel or EMSA; purified enzymes in GDN and in nanodisc, with cross-linker; SDS added to the sample before loading on the BN-PAGE gel
substance,measurement,value
PaMprF H566C mutant (enzyme),stoichiometry N,2
